One molecule from patent publication CN115819568A can be followed below.

The assay deals with EV A71病毒样颗粒(VLP) (Enterovirus A71). Description: sandwich ELISA: rabbit anti-EV A71 VLP serum as capture, VLP titrated, antibody 1.2 ng/ul as detector, positive at OD450>0.15. For orientation: ELISA stands for enzyme-linked immunosorbent assay.

B1: 肠道病毒A71单克隆抗体 1G10 (antibody, V domains shown)
VH: EVKLVESGGGLVKPGGSLKLSCAASGFTFSSYVMSWVRQTPEKRLEWVASISNGGSTFYPDSVKGRLTISRDNARNILYLQMSSLRSEDTAMYYCARAYGNDWYFDVWGAGTTVTVSS
VL: DIQMTQTTSSLSASLGDRVTISCRASQDISNYLNWYQQKPDGTVKLLIYYTSRLNSGVPSRFSGSGSGTDYSLTISNLEEEDIATYFCQQGNTAWTFGGGTKLEIKR
Turning to B1, the 最低检出限度 turned out to be 3.12 ng/mL.
